Results as given in publication PMC8313811 (Current Research in Structural Biology, 2021).

Assays:
SEC = biological target: the molecule itself; assay: SEC
cryo-EM structure = biological target: the molecule itself; assay: cryo-EM structure

B1: M. tuberculosis EspB (residues 2-358), mature form (domain or fragment)
chain: TQSQTVTVDQQEILNRANEVEAPMADPPTDVPITPCELTAAKNAAQQLVLSADNMREYLAAGAKERQRLATSLRNAAKAYGEVDEEAATALDNDGEGTVQAESAGAVGGDSSAELTDTPRVATAGEPNFMDLKEAARKLETGDQGASLAHFADGWNTFNLTLQGDVKRFRGFDNWEGDAATACEASLDQQRQWILHMAKLSAAMAKQAQYVAQLHVWARREHPTYEDIVGLERLYAENPSARDQILPVYAEYQQRSEKVLTEYNNKAALEPVNPPKPPPAIKIDPPPPPQEQGLIPGFLMPPSDGSGVTPGTGMPAAPMVPPTGSPGGGLPADTAAQLTSAGREAAALSGDVAVKAA
binding result (SEC): binds

B2: M. tuberculosis EspB2-287 (domain or fragment)
chain: TQSQTVTVDQQEILNRANEVEAPMADPPTDVPITPCELTAAKNAAQQLVLSADNMREYLAAGAKERQRLATSLRNAAKAYGEVDEEAATALDNDGEGTVQAESAGAVGGDSSAELTDTPRVATAGEPNFMDLKEAARKLETGDQGASLAHFADGWNTFNLTLQGDVKRFRGFDNWEGDAATACEASLDQQRQWILHMAKLSAAMAKQAQYVAQLHVWARREHPTYEDIVGLERLYAENPSARDQILPVYAEYQQRSEKVLTEYNNKAALEPVNPPKPPPAIKIDPP
stoichiometry N (cryo-EM structure): 7

B3: M. marinum EspB2-286 (domain or fragment)
chain: SQPQTVTVDQQEILNRADEVEAPMATPPTDVPQAPSGLTAANNAAEQLAVSADNVRLYLQAGERERQRLATSLRNAAAAYGEVEDESATALDNDGNGEVDAQSAGGAGAGQTESLEETPKVAAAGESDFTDLKTAATKLESGDQGTSMVNFADGWNNFNLSLQRDIKRFRIFENWEGDAATACEASMDQQKEWILHMAKLSASLAKQANFMAQLQLWARRGHPTLADIVELERLAKDPDYQEQAIKLYAEYQETSEKVLSEYNTKADLEPVNPPKPPAAIKIDPP
stoichiometry N (cryo-EM structure): 7
